Data set [1] concerns the target T1, Serine acetyltransferase isoform 1 (EhSAT1) (Entamoeba histolytica, UniProt Q9U8X2).
T1 construct: gene EhSAT
T1 sequence (Q9U8X2 1-305): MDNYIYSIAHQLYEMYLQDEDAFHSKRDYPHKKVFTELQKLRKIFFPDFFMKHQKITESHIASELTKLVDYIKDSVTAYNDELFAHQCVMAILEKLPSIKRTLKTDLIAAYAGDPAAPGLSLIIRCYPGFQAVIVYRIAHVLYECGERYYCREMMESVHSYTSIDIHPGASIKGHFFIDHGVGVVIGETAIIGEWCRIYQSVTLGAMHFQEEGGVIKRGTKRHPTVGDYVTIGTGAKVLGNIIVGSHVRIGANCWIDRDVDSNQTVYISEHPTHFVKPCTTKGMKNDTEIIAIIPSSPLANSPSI
Put plainly: SAT activity assay, acetyl-CoA thioester cleavage at […] nm, […] serine. Format: biochemical.

Substrate in data set [2]: N[C@@H](CO)C(=O)O
Put plainly: purified protein. The data set is classed as biochemical, Entamoeba histolytica. The following applies: acetyl coenzyme A active site.

The values that follow come from paper PMC3578862, “Single Residue Mutation in Active Site of Serine Acetyltransferase Isoform 3 from Entamoeba histolytica Assists in Partial Regaining of Feedback Inhibition by Cysteine” (PLoS ONE, 2013).

A word on the IC50: it is the midpoint of a concentration-inhibition curve. Higher therefore signals a need for much substance. In general, Km refers to the concentration of substrate that gives half-maximal velocity.

On to `N[C@@H](CS)C(=O)O` [L-cysteine], for which half-maximal inhibition in data set [1] (IC50) required 9.59 µM.

B1: Serine acetyltransferase isoform 3 (EhSAT3) (Entamoeba histolytica) (protein)
chain: MSSLLQQTSQLLVQSYQSDNIAFKSTKQFPEKKSFLELELIQKILFPDFFTRRDKRTFNNVLERLSLLVYHIQNSIEAYYNQQLAEKCITALLSQFVTIRELVKQDIIAAYTGDPAASSLAMIIRSYPGIHVMMIQRVAHILYMNGDIEYSRELMENIHSVTGIDIHPGTSIGNHFFIDHGVGVVIGETAVIGNWCRVYQSVTLGAMSFKEDNGIVIKGNKRHPTIGDFVVIGAGAKVLGNITIGSNVKIGANCWITQNIDQDQIVFISEHPSQITKSSTKQSSKDDKIILQSLTENKISEEQENLSWVNSPELLCTYTSEESTPINLDCFVSCQQ
With B1, the Km in data set [2] is reported as 52.0 µM.

B2: Serine acetyltransferase isoform 1 (EhSAT1) (Entamoeba histolytica) (protein)
chain: MDNYIYSIAHQLYEMYLQDEDAFHSKRDYPHKKVFTELQKLRKIFFPDFFMKHQKITESHIASELTKLVDYIKDSVTAYNDELFAHQCVMAILEKLPSIKRTLKTDLIAAYAGDPAAPGLSLIIRCYPGFQAVIVYRIAHVLYECGERYYCREMMESVHSYTSIDIHPGASIKGHFFIDHGVGVVIGETAIIGEWCRIYQSVTLGAMHFQEEGGVIKRGTKRHPTVGDYVTIGTGAKVLGNIIVGSHVRIGANCWIDRDVDSNQTVYISEHPTHFVKPCTTKGMKNDTEIIAIIPSSPLANSPSI
Take B2: in data set [2] (Asp114, Asp179, His180, His208, Arg222, His223), the Km was 43.5 µM.
